In FireProtDB (doi:10.1007/s10930-015-9600-7):

B1: Carboxymethylenebutenolidase, P0A115 (parent)
chain: MLTEGISIQSYDGHTFGALVGSPAKAPAPVIVIAQEIFGVNAFMRETVSWLVDQGYAAVCPDLYARQAPGTALDPQDERQREQAYKLWQAFDMEAGVGDLEAAIRYARHQPYSNGKVGLVGYCLGGALAFLVAAKGYVDRAVGYYGVGLEKQLKKVPEVKHPALFHMGGQDHFVPAPSRQLITEGFGANPLLQVHWYEEAGHSFARTSSSGYVASAAALANERRLDFLAPLQSKKP

Variants of: B1
Conditions: Pseudomonas knackmussii (strain DSM 6978 / CCUG 54928 / LMG 23759 / B13), pH 7.5, Thermal, Hepes 50 mM, structure 4U2B, whole UniProt chain shown

## MLTEGISIQSYDGHTFGALVGSPAKAPAPVIVIAQEIFGVNAFMRETVSWLVDQGYAAVCPDLYARQAPGTALDPQDERQREQAYKLWQAFDMEAGVGDLEAAIRYARHLPYSNGKVGLVGYCLGGALAFLVAAKGYVDRAVGYYGVGLEKQLDKVPEVKHPALFHMGGQDHFVPAPSRQLITEGFGANPLLQVHWYEEAGHSFARTSSSGYVASAAALANERRLDFLAPLQSKKP [Q110L K154D]
Activity, NaCl 75 mM
  Tm: 54.2 °C
  change of melting temperature, mutant - wild type (higher = more stable): 3.1 °C
fluorescence
  Tm: 54.8 °C
  change of melting temperature, mutant - wild type (higher = more stable): 3.3 °C

## MLTEGISIQSYDGHTFGALVGSPAKAPAPVIVIAQEIFGVNAFMRETVSWLVDQGYAAVCPDLYARQAPGTALDPQDERQREQAYKLWQAFDMEAGVGDLEAAIRYARHQPYSNGKVGLVGYCLGGALAFLVAAKGCVDRAVGYYGVGLEKQLKKVPEVKHPALFHMGGQDHFVPAPSRQLITEGFGANPLLQVHWYEEAGHSFARTSSSGYVASAAALANERRLDFLAPLQSKKP [Y137C]
Activity, NaCl 75 mM
  Tm: 49.3 °C
  change of melting temperature, mutant - wild type (higher = more stable): -1.9 °C
fluorescence
  Tm: 50.8 °C
  change of melting temperature, mutant - wild type (higher = more stable): -0.7 °C

## MLTEGISIQSYDGHTFGALVGSPAKAPAPVIVIAQEIFGVNAFMRETVSWLVDQGYAAVCPDLYARQAPGTALDPQDERQREQAYKLWQAFDMEAGVGDLEAAIRYARHQPYSNGKVGLVGYCLGGALAFLVAAKGYVDRAVGYYGVGLEKQLDKVPEVKHPALFHMGGQDHFVPAPSRQLITEGFGANPLLQVHWYEEAGHSFARTSSSGYVASAAALANERRLDFLAPLQSKKP [K154D]
Activity, NaCl 75 mM
  Tm: 53.9 °C
  change of melting temperature, mutant - wild type (higher = more stable): 2.7 °C
fluorescence
  Tm: 54.4 °C
  change of melting temperature, mutant - wild type (higher = more stable): 2.9 °C
